The supplement of paper PMC11246515
± gives the standard deviation of the averaged measurements.

Test: total protein half-life in vivo (active degradation + dilution); higher = more stable protein
[1] = E. coli NCM3722 delta-clpP delta-lon delta-hslV, growth: N-lim chemostat, doubling time 6 h
[2] = E. coli NCM3722 delta-clpP, growth: N-lim chemostat, doubling time 6 h
[3] = E. coli NCM3722 delta-hslV, growth: N-lim chemostat, doubling time 6 h
[4] = E. coli NCM3722 delta-lon, growth: N-lim chemostat, doubling time 6 h
[5] = E. coli NCM3722 delta-smpB, growth: N-lim chemostat, doubling time 6 h
[6] = wild type E. coli NCM3722, growth: C-lim chemostat, doubling time 12 h
[7] = wild type E. coli NCM3722, growth: N-lim chemostat, doubling time 6 h
[8] = wild type E. coli NCM3722, growth: N-lim chemostat, doubling time 12 h
[9] = wild type E. coli NCM3722, growth: P-lim chemostat, doubling time 6 h
[10] = wild type E. coli NCM3722, growth: P-lim chemostat, doubling time 12 h
[11] = wild type E. coli NCM3722, growth: C-lim chemostat, doubling time 6 h

| Sequence | total protein half-life in vivo [1] [h] | total protein half-life in vivo [2] [h] | total protein half-life in vivo [3] [h] | total protein half-life in vivo [4] [h] | total protein half-life in vivo [5] [h] | total protein half-life in vivo [6] [h] | total protein half-life in vivo [7] [h] | total protein half-life in vivo [8] [h] | total protein half-life in vivo [9] [h] | total protein half-life in vivo [10] [h] | total protein half-life in vivo (wild type E. coli NCM3722, growth: C-lim chemostat, doubling time 3 h) [h] | total protein half-life in vivo [11] [h] |
| --- | --- | --- | --- | --- | --- | --- | --- | --- | --- | --- | --- | --- |
| MLVWLAEHLVKYYSGFNVFSYLTFRAIVSLLTALFISLWMGPRMIAHLQKLSFGQVVRNDGPESHFSKRGTPTMGGIMILTAIVISVLLWAYPSNPYVWCVLVVLVGYGVIGFVDDYRKVVRKDTKGLIARWKYFWMSVIALGVAFALYLAGKDTPATQLVVPFFKDVMPQLGLFYILLAYFVIVGTGNAVNLTDGLDGLAIMPTVFVAGGFALVAWATGNMNFASYLHIPYLRHAGELVIVCTAIVGAGLGFLWFNTYPAQVFMGDVGSLALGGALGIIAVLLRQEFLLVIMGGVFVVETLSVILQVGSFKLRGQRIFRMAPIHHHYELKGWPEPRVIVRFWIISLMLVLIGLATLKVR [P0A6W3] | 6.14 | 5.83 | 5.23 | 5.13 ± 0.073 | 7.03 | 12.3 ± 0.13 | 6.35 ± 0.4 | 13.1 | 6.06 | 11.1 ± 0.92 | – | – |
| MLWGFVFVSFISKELALGQSEYISWVKCTSWLSNFVNLRGLRQPDGRPLYEYHATNDEYTQLTQLLRAVGQSQSNICNRDFAACFVLFCSEWYRRDYERQCGWTWDPIYKKIGISFTATELGTIVPKGMEDYWLRPIRFYESERRNFLGTLFSEGGLPFRLLKESDSRFLAVFSRILGQYEQAKQSGFSALSLARAVIEKSALPTVFSEDTSVELISHMADNLNSLVLTHNLINHKEPVQQLEKVHPTWRSEFPIPLDDETGTHFLNGLLCAASVEAKPRLQKNKSTRCQFYWSEKHPDELRVIVSLPDEVSFPVTSEPSTTRFELAICEDGEEVSGLGPAYASLENRQATVRLRKSEVRFGRQNPSAGLSLVARAGGMIVGSIKLDDSEIAIGEVPLTFIVDADQWLLQGQASCSVRSSDVLIVLPRDNSNVAGFDGQSRAVNVLGLKALPVKGCQDVTVTANETYRIRTGREQISIGRFALNGKRASWVCHPDETFIGVPKVISTLPDIQSIDVTRYTC | – | – | – | – | – | – | 5.44 | – | – | – | – | – |
| MLYDKSLERDNCGFGLIAHIEGEPSHKVVRTAIHALARMQHRGAILADGKTGDGCGLLLQKPDRFFRIVAQERGWRLAKNYAVGMLFLNKDPELAAAARRIVEEELQRETLSIVGWRDVPTNEGVLGEIALSSLPRIEQIFVNAPAGWRPRDMERRLFIARRRIEKRLEADKDFYVCSLSNLVNIYKGLCMPTDLPRFYLDLADLRLESAICLFHQRFSTNTVPRWPLAQPFRYLAHNGEINTITGNRQWARARTYKFQTPLIPDLHDAAPFVNETGSDSSSMDNMLELLLAGGMDIIRAMRLLVPPAWQNNPDMDPELRAFFDFNSMHMEPWDGPAGIVMSDGRFAACNLDRNGLRPARYVITKDKLITCASEVGIWDYQPDEVVEKGRVGPGELMVIDTRSGRILHSAETDDDLKSRHPYKEWMEKNVRRLVPFEDLPDEEVGSRELDDDTLASYQKQFNYSAEELDSVIRVLGENGQEAVGSMGDDTPFAVLSSQPRIIYDYFRQQFAQVTNPPIDPLREAHVMSLATSIGREMNVFCEAEGQAHRLSFKSPILLYSDFKQLTTMKEEHYRADTLDITFDVTKTTLEATVKELCDKAEKMVRSGTVLLVLSDRNIAKDRLPVPAPMAVGAIQTRLVDQSLRCDANIIVETASARDPHHFAVLLGFGATAIYPYLAYETLGRLVDTHAIAKDYRTVMLNYRNGINKGLYKIMSKMGISTIASYRCSKLFEAVGLHDDVVGLCFQGAVSRIGGASFEDFQQDLLNLSKRAWLARKPISQGGLLKYVHGGEYHAYNPDVVRTLQQAVQSGEYSDYQEYAKLVNERPATTLRDLLAITPGENAVNIADVEPASELFKRFDTAAMSIGALSPEAHEALAEAMNSIGGNSNSGEGGEDPARYGTNKVSRIKQVASGRFGVTPAYLVNADVIQIKVAQGAKPGEGGQLPGDKVTPYIAKLRYSVPGVTLISPPPHHDIYSIEDLAQLIFDLKQVNPKAMISVKLVSEPGVGTIATGVAKAYADLITIAGYDGGTGASPLSSVKYAGCPWELGLVETQQALVANGLRHKIRLQVDGGLKTGVDIIKAAILGAESFGFGTGPMVALGCKYLRICHLNNCATGVATQDDKLRKNHYHGLPFKVTNYFEFIARETRELMAQLGVTRLVDLIGRTDLLKELDGFTAKQQKLALSKLLETAEPHPGKALYCTENNPPFDNGLLNAQLLQQAKPFVDERQSKTFWFDIRNTDRSVGASLSGYIAQTHGDQGLAADPIKAYFNGTAGQSFGVWNAGGVELYLTGDANDYVGKGMAGGLIAIRPPVGSAFRSHEASIIGNTCLYGATGGRLYAAGRAGERFGVRNSGAITVVEGIGDNGCEYMTGGIVCILGKTGVNFGAGMTGGFAYVLDESGDFRKRVNPELVEVLSVDALAIHEEHLRGLITEHVQHTGSQRGEEILANWSTFATKFALVKPKSSDVKALLGHRSRSAAELRVQAQ | 6.38 ± 0.89 | 6.254 ± 0.044 | 4.18 ± 0.16 | 4.437 ± 0.013 | 4.06 ± 0.1 | 8.46 ± 0.56 | 3.92 ± 0.12 | 6.4 ± 0.52 | 5.31 ± 0.17 | 8.43 ± 0.51 | 2.72 ± 0.22 | 4.89 ± 0.053 |
| MLYVIYAQDKADSLEKRLSVRPAHLARLQLLHDEGRLLTAGPMPAVDSNDPGAAGFTGSTVIAEFESLEAAQAWADADPYVAAGVYEHVSVKPFKKVF [P0AB55] | 5.05 ± 0.14 | 4.751 ± 0.018 | 4.51 ± 0.13 | 5.1 ± 0.41 | 5.34 ± 1 | 9.37 | – | 7.02 ± 0.86 | 6 | – | – | 4.96 ± 0.49 |
| MMANIWWSLPLTLIVFFAARKLAARYKFPLLNPLLVAMVVIIPFLMLTGISYDSYFKGSEVLNDLLQPAVVALAYPLYEQLHQIRARWKSIITICFIGSVVAMVTGTSVALLMGASPEIAASILPKSVTTPIAMAVGGSIGGIPAISAVCVIFVGILGAVFGHTLLNAMRIRTKAARGLAMGTASHALGTARCAELDYQEGAFSSLALVLCGIITSLIAPFLFPIILAVMG [P0AD19] | – | – | – | – | – | – | 5.99 | – | – | – | – | – |
| MMDNDNSLNKRPTFKRALRNISMTSIFITMMLIWLLLSVTSVLTLKQYAQKNLALTAATMTYSLEAAVVFADGPAATETLAALGQQGQFSTAEVRDKQQNILASWHYTRKDPGDTFSNFISHWLFPAPIIQPIRHNGETIGEVRLTARDSSISHFIWFSLAVLTGCILLASGIAITLTRHLHNGLVEALKNITDVVHDVRSNRNFSRRVSEERIAEFHRFALDFNSLLDEMEEWQLRLQAKNAQLLRTALHDPLTGLANRAAFRSGINTLMNNSDARKTSALLFLDGDNFKYINDTWGHATGDRVLIEIAKRLAEFGGLRHKAYRLGGDEFAMVLYDVQSESEVQQICSALTQIFNLPFDLHNGHQTTMTLSIGYAMTIEHASAEKLQELADHNMYQAKHQRAEKLVR | 4.053 ± 0.0067 | – | – | – | – | – | 0.877 | – | 1.69 | – | – | – |
| MMEQSLIPQTPVLPLTAQRTVKRALTLLDRHLRETGVAFTSTQAARDWLKLKMAGLEREEFMMLYLNQQNQLIAHETLFAGSISSTEVHPREVVKRALYFNAAAVILAHNHPSGDTTPSQADKTITQRLVQALQLVDIRVPDHLIVGGRQIYSFAEHGLL | – | – | – | – | – | – | – | 8.33 | – | 10.4 | – | – |
| MMGKLIWLMGPSGSGKDSLLAELRLREQTQLLVAHRYITRDASAGSENHIALSEQEFFTRAGQNLLALSWHANGLYYGVGVEIDLWLHAGFDVLVNGSRAHLPQARARYQSALLPVCLQVSPEILRQRLENRGRENASEINARLARAARYTPQDCHTLNNDGSLRQSVDTLLTLIHQKEKHHACL | 5.33 | – | – | – | – | – | – | – | 0.578 | 1.28 | – | – |
